B1: TPR t1 (parent)
chain: GACCAAUCUGCCCUCAGAGCUCGAGAACAUCUUCGGAUGCAGAGGAGGCAGGCUUCGGUGGCGCGAUAGCGCCAACGUCCUCAACCUCCAAUGCAUCCCACCACAUGAUGAUGCCUGAAGAGCCUUGGUUUUUUG

Variants of: B1
Test: polymerase ribozyme fitness, log enrichment relative to wild type (log ratio); higher = more active; in vitro selection for triplet polymerase activity
Summary of the method: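 To select mutant libraries of each subunit of a heterodimeric triplet polymerase ribozyme, built by PCR and transcribed, each was annealed with a biotinylated primer, partner subunit and triplets, then incubated frozen at −7 °C. Extended constructs were gel-excised, captured on streptavidin beads and amplified by RT-PCR, in one round carried out in triplicate. Illumina sequencing of input and output libraries kept genotypes with ≥10 input reads and ≥1 read per output. Fitness is the base-2 logarithm of genotype enrichment relative to wild-type enrichment, from inverse-variance-weighted replicate averages.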

| Variant | polymerase ribozyme fitness (log ratio) |
| --- | --- |
| A83U C114A | -1.1 |
| U78C A111U | -2.5 |
| C85U G110C C115U A121G | -6.18 |
| C82U G120U | 0.312 |
| C85U A118G | -0.773 |
| G77U G122A U130G | -0.666 |
| C80U G128C | -3.33 |
| C80U C88U A111G C114A | -4.84 |
| A74U U78G U131G | -1.29 |
| U78A C123A | 0.278 |
| C85G G128A | -2.55 |
| C80A G117A | -4.27 |
| C79A C80A C88A | -5.16 |
| G77C U92C G122A | -2.81 |
| U78A A95C G113U U125G | -4.39 |
| U78A G117A G128C | -5.04 |
| C79U A111U U112A C124A | 1.11 |
| C85U C124G | 0.923 |
| C79U C80U C104U | -1.54 |
| C85U U109G | -5.2 |
| U78G C98U | -0.646 |
| U78G C89A | -3.29 |
| A84C C89A G113A | -2.63 |
| A83C C101A | -1.18 |

| Variant | polymerase ribozyme fitness (log ratio) |
| --- | --- |
| G77A A84U U112G | -2.45 |
| A75U U81A G113C U130C | -3.89 |
| U78A C88G C98U G135A | -2.63 |
| C79U C80A | -3.65 |
| U81G U112A | -4.16 |
| U78C C102U | -2.14 |
| U78C C80U | -0.608 |
| A74G G113A | -1.8 |
| U81G G122U C123G U129A | -4.51 |
| C76U C104A | -1.92 |
| C79G C89A G127U | -4.91 |
| A74G U112G U116A | -1.07 |
| C85U C98U | -1.57 |
| C85A G113A A121C | -2.05 |
| C79U A90G G107U | -4.88 |
| A74U G110A | -1.3 |
| C82A C102U | -1.82 |
| A74G U109G | -4.6 |
| C79G U131G | -1.06 |
| U81G U131A | -3.6 |
| A84U G93A | -1.11 |
| A84U G93U | -1.44 |
| G77A U87A A111U G122U | -4.12 |
| G77A A111C A119U C123A U131C | -2.38 |

| Variant | polymerase ribozyme fitness (log ratio) |
| --- | --- |
| C82A G120U | 0.156 |
| U81G G127C | -4.77 |
| C79G U126G | -2.94 |
| G77C C86A G117A | -3.88 |
| C85U A100C | -1.76 |
| C85U A100U | -1.79 |
| C79A C99A | -6.57 |
| C80U C101U G128A | -2.13 |
| C82G C88G | -1.26 |
| A83G A84G C99U | -5.16 |
| C80U G113U | -3.41 |
| C80A A95U G120A U130G | -3.52 |
| C82G A90G A91G C101G | -2.95 |
| C76U C82U C102U G117A | -4.4 |
| C79G C89U G117A | -4.75 |
| C85G U131A | -1.92 |
| A74C C82U A95C | -0.152 |
| A83C C85A C115A G117A | -6.05 |
| U81A U112G | -0.661 |
| U81A U112A | 0.19 |
| U81A C115G | -2.4 |
| C82U U109G U130G | -6.23 |
| A74U U112A G128A | -1.59 |
| A84U A90U | -1.49 |

| Variant | polymerase ribozyme fitness (log ratio) |
| --- | --- |
| A83U C88A G128C | -3.29 |
| A84C C98U | -1.5 |
| U78A C97A | -4.8 |
| A84G G93C G127U | -1.68 |
| C80U G93A | -1.52 |
| A74G A83U U106C | -0.743 |
| C79A C124A | 0.574 |
| C85A A95C | -2.61 |
| C82A A103G | -4.08 |
| C76A U78A A118U | 0.066 |
| A74U C102U | -2.82 |
| A84U C88U G93A G128A | -2 |
| C76G G77U | 0.0405 |
| A84U U112C | 1.2 |
| A74G G120U G135C | 0.597 |
| G77A C85A | -2.93 |
| A84U C123A | -0.143 |
| C79G A84C | -2.61 |
| C82U C115U | -1.02 |
| C82U C115A | -0.595 |
| C82G G127A | -2 |
| C76U G135U | -1.08 |
| U78C G93A U112C G128U | -1.32 |
| C80U C115G | -0.729 |

| Variant | polymerase ribozyme fitness (log ratio) |
| --- | --- |
| U81A A90C U92C | -4.05 |
| C80U A84U C89U A119G C123A | 0.318 |
| G77C G117U | -2.55 |
| G77A U81A G128A | -2.44 |
| U78C C88U C123G U125A | 1.82 |
| C85A U112A C115U U130C | -2.28 |
| A84U G110U | -1.34 |
| C80G G127U | -6.14 |
| A75U A111C | 0.255 |
| U81A G120A | -0.668 |
| C79U G110C | -2.71 |
| A84G C86A U96C G113A | -2.94 |
| U78C G117U G128C G135C | -6.04 |
| C85G C94U C97U G120C | -0.74 |
| A74U U87A C102U C104A | -2.53 |
| U78A C115U | -1.41 |
| C80U C101U A111U U116A | -4.81 |
| A84U G110C U130C | -4.16 |
| A74U U78A C85U C114U | -4.72 |
| G77C U125A | -0.685 |
| G77A U131A | 0.113 |
| G77A G93A C124A | 1.34 |
| U81G A118U | -2.58 |
| C79U U129C | 0.161 |

| Variant | polymerase ribozyme fitness (log ratio) |
| --- | --- |
| C79G C124G | -0.0918 |
| A74C A105C | -2.34 |
| C80G A105C U116A C123G | -7.31 |
| C85U G113C C114A | -5.96 |
| U81A G127U | -2.76 |
| C80U C114G | -3.48 |
| C79U C102U G117A | -3.4 |
| A74U C88G A118U | -1.31 |
| G77A C80U C98A C123G | -4.14 |
| U81A A91U C101U | -3.43 |
| C82G G113A | -1.04 |
| C76A G113C | -3.53 |
| C82G C85A A111G G113U U130G | -4.27 |
| C85G A118U U126G | -3.39 |
| G77C U96A | -1.58 |
| C79G A83G G117C | -5.42 |
| C80U G120U | -0.245 |
| C80U G120C | 0.704 |
| A84G U106G | -3.32 |
| C82U A95G | 0.358 |
| C82A U125A | -0.778 |
| C85U G113U | -3.63 |
| C85G C114U | -3.59 |
| G77U C82U G107A U112C | -5.86 |

| Variant | polymerase ribozyme fitness (log ratio) |
| --- | --- |
| C76G C99A U112A | -4.02 |
| U78A A95G | -0.764 |
| A74G G120A | 1.08 |
| C79A C82U C94A G113A G128U | -5.6 |
| C82A C89G C101A C102A U112C C123A | -6.34 |
| U78G C114G U129A | -4.16 |
| G77U C82U | -0.811 |
| C79U G117C | -3.9 |
| A75G C97U U131A | -0.00214 |
| C85A G117A | -2.97 |
| C79G C94G G113A | -5.05 |
| A74C U106A G120U C124G | 1.17 |
| C80U C94U | -0.851 |
| G77C C85A | -1.93 |
| C82A C99U | -4.04 |
| A75G U129A | -0.79 |
| C76U C88A | -1.29 |
| C76G C98A | -4.09 |
| U78C A84G C97G | -5.87 |
| A74U U78C G120C | 0.366 |
| U78C A95G | -1.08 |
| C76U G127A | -1.52 |
| G77A A91G | -1.01 |

— the RNAGym collection of RNA variant scans (doi:10.1073/pnas.2313332121)
